# B1: TFG PB1 domain (amino acids 1-96), wild type (domain or fragment, human, UniProt Q92734 1-96, looked up)
# chain: MNGQLDLSGKLIIKAQLGEDIRRIPIHNEDITYDELVLMMQRVFRGKLLSNDEVTIKYKDEDGDLITIFDSSDLSFAIQCSRILKLTLFVNGQPRP
# Biological target: the molecule itself
# Assay: SEC-MALS
protein,measurement,value
B1,stoichiometry N,8

# — publication doi:10.1101/2024.11.05.621662 (bioRxiv, 2024)
